The source of these data is paper PMC9245664 (Proceedings of the National Academy of Sciences of the …, 2022).

Where a chain is given by its changes, count along the chain named.

Test in all cases: NMR titration
Assay [1] has as its target T1, Wzc_(CDΔC,ΔCys) (Cys544Ser/Cys563Ser) (E. coli (K-12), UniProt P76387 447-704, Cys544Ser | Cys563Ser).
T1 sequence: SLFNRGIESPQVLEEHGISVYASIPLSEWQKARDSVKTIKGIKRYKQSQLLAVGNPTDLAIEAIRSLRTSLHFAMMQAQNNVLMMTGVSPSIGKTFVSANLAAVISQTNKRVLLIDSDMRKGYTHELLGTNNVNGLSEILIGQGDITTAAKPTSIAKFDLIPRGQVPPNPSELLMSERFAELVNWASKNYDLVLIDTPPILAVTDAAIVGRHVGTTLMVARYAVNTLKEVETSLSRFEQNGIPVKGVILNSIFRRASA

Assay [2] concerns the target T2, Wzc_(CDΔC,ΔCys,Val466Cys) (E. coli (K-12), UniProt P76387 447-704, Cys544Ser | Cys563Ser | Val466Cys).
T2 sequence: T1 sequence with V20C

Assay [3] deals with T3, Wzc_(CDΔC,ΔCys,Leu505Cys) (E. coli (K-12), UniProt P76387 447-704, Cys544Ser | Cys563Ser | Leu505Cys).
T3 sequence: T1 sequence with L59C

The target of assay [4] is T4, Wzc_(CDΔC,ΔCys,Ser516Cys) (E. coli (K-12), UniProt P76387 447-704, Cys544Ser | Cys563Ser | Ser516Cys).
T4 sequence: T1 sequence with S70C

Assay [5] concerns the target T5, Wzc_(CDΔC,ΔCys,Gln523Cys) (E. coli (K-12), UniProt P76387 447-704, Cys544Ser | Cys563Ser | Gln523Cys).
T5 sequence: T1 sequence with Q77C

Assay [6] concerns the target T6, Wzc_(CDΔC,ΔCys,Lys556Cys) (E. coli (K-12), UniProt P76387 447-704, Cys544Ser | Cys563Ser | Lys556Cys).
T6 sequence: T1 sequence with K110C

A word on the Kd: it is a measure of binding affinity in units of concentration. Read a low Kd as higher affinity.

B1: full-length E. coli (K-12) Wzb, wild type (enzyme)
chain: MFNNILVVCVGNICRSPTAERLLQRYHPELKVESAGLGALVGKGADPTAISVAAEHQLSLEGHCARQISRRLCRNYDLILTMEKRHIERLCEMAPEMRGKVMLFGHWDNECEIPDPYRKSRETFAAVYTLLERSARQWAQALNAEQV
In the case of B1, the Kd in assay [1] amounted to 15.2 ± 0.6 µM; in assay [2], 8.9 ± 0.3 µM; in assay [3] it was 43.8 ± 1.3 µM; in assay [4] it was 11.3 ± 0.7 µM; in assay [5], 16.9 ± 0.5 µM; in assay [6], 7.3 ± 0.4 µM.
